Assay results as given in patent US5462743A, “Substance transfer system for topical application” (Medipro Sciences Limited, priority 1993, dated 1995).
Where “and” joins values, the source holds several entries; their conditions need not be identical. Equal values may be shown once. Blank lines part the entries; values can stand above or below the molecule they belong to.

Tests used:
cancerous body cells = settings: subsequently converted into protoporphyrin IX; cited from earlier work
[1] = In vitro permeation through intact skin, patch of FIGS. 14 and 15 (Example 6); format: in vitro ADME, Hairless Guinea Pig
Procedure: (§1) The wells were filled with porous plastic.
In addition to the transdermal patches using porous plastic depots as described in Example 5, patches containing fibrous depots were also tested. The fibrous depots, also measured 3 mm in length were cut from an aligned bonded cellulose acetate rod, 3 mm in diameter (R14236 from American Filtrona Co.).

[2] = In vitro skin permeation, patch of FIG. 3 (Example 4); format: in vitro ADME, Hairless Guinea Pig; settings: porous plastic depots
Source text: […] […] Duplicate samples of each test compound were run.
skin compatible adhesive, H-566 coated onto a white polyethylene closed cell foam, 0.8 mm thick (Dermaflex PEF 32-W H-566 from Flexcon Company, Inc.) was used, perforated with an array of 69 cylindrical channels approximately 0.84 mm in diameter;
the channels were not lined; instead they were filled with cylindrical sections of porous plastic material (Hydrophilic HDPE with medium pore size, NO. X-4899, Porex Technologies);
the silicone sealant was absent; a reservoir support layer consisting of 1.6 mm thick sheet of porous plastic material, 2.0 cm in diameter (Hydrophilic HDPE with coarse pore size, NO. X-4916, Porex Technologies) was placed directly above the array of 69 channels;
Some variability in results, as between attempted duplicates, was observed, largely attributable to uncertain intimate contact between the reservoir and the skin contacting matrices.

[3] = In vitro skin permeation, patch of FIG. 2 (Example 1); settings: compromised skin, 37° C, contact area 0.21 cm^2, about 1 mg loaded, less than ideal intimate contact
Source text: (§2) The skin penetration of model compounds from a transdermal patch constructed according to FIG. 2 was established in vitro by a permeation study. […] The array measured 1.7×1.7 cm and was centrally located. […] On this outer surface of the adhesive layer, but between the slightly protruding silicone tubing was cast a 30% solution of silicone sealant in hexane. The channels were filled with filaments of open cell polyurethane foam. On top of the dry silicone layer was placed a reservoir support layer consisting of a 1.5 mm thick sheet of the same open-cell polyurethane foam, 2.0 cm in diameter. The outer, barrier layer of the patch was a 3.5 cm diameter section of DERMAFLEX V-300-F FLESH (vinyl coated with a medical grade acrylic adhesive, FLEXCON Company). The reservoir and channels of the patch were loaded with a solution which contained a fluorescently labelled model compound (polypeptides or polysaccharide). […] The sections of modified skin (stratum corneum removed) were excised from the Hairless Guinea Pig and mounted on the diffusion cell above a solution of isotonic saline such that the dermal side of skin was in contact with the magnetically stirred receptor liquid. The device was brought into intimate contact with the epidermal surface of the skin. The effective contact area of the solution with the skin through the channels was 0.21 cm^2. […]

[4] = In vitro skin permeation, patch of FIGS. 14 and 15, dried drug matrix (Example 7); format: in vitro ADME, Hairless Guinea Pig; settings: freeze dried depots, porous plastic matrix
Source text: as §1
The drug depots were hydrated with a suitable solubilizing solution just before the start of the permeation study, as illustrated in FIG. 6.

[5] = In vitro skin permeation, patch of FIGS. 14 and 15, liquid reservoir (Example 5); format: in vitro ADME, Hairless Guinea Pig; settings: porous plastic depots, contact area 1.1 cm^2
[6] = in vivo; cited from earlier work
[7] = In vitro skin permeation, patch of FIG. 2 with H566 adhesive (Example 2); settings: compromised skin, approximately 1 mg loaded, intimate contact maintained
Source text: as §2

[8] = in the bloodstream; cited from earlier work

Molecule: NCC(=O)CCC(=O)O [5-aminolevulinic acid]
absorption by cancerous body cells (cancerous body cells): preferentially absorbed by cancerous body cells

Amount Permeated (Cumulative) ([1]; fibrous matrix, 8 hrs): 0.19 Micrograms and 0.34 Micrograms | Amount Permeated (Cumulative) ([1]; fibrous matrix, 24 hrs): 1.74 Micrograms and 2.93 Micrograms | Amount Permeated (Cumulative) ([1]; fibrous matrix, 48 hrs): 2.99 Micrograms and 4.83 Micrograms | Amount Permeated (Cumulative) ([1]; porous plastic matrix, 8 hrs): 1.01 Micrograms and 1.03 Micrograms | Amount Permeated (Cumulative) ([1]; porous plastic matrix, 24 hrs): 6.14 Micrograms and 6.87 Micrograms | Amount Permeated (Cumulative) ([1]; porous plastic matrix, 48 hrs): 9.90 Micrograms and 10.69 Micrograms
Molecule: C[C@]12CC[C@@H]3c4ccc(O)cc4CC[C@H]3[C@@H]1CC[C@@H]2O [Estradiol, estradiol]

Molecule: Casein
Amount Permeated in 20 Hrs. [2]: 75.98 Micrograms and 104.98 Micrograms | Amount Permeated in 20 Hrs. [3]: 0.05 Micrograms and 0.03 Micrograms

Molecule: Cytochrome C: carbon-14 labelled model compound, polypeptide, 12,300, from horse heart
Amount Permeated (Cumulative) ([4]; 4 hrs): 40.4 Micrograms | Amount Permeated (Cumulative) ([4]; 8 hrs): 124.2 Micrograms and 119.9 Micrograms | Amount Permeated (Cumulative) ([4]; 24 hrs): 412.6 Micrograms and 363.1 Micrograms | Amount Permeated (Cumulative) ([4]; 48 hrs): 642.7 Micrograms and 560.6 Micrograms | Amount Permeated (Cumulated) ([5]; 4 hrs): 117.8 micrograms and 103.4 micrograms | Amount Permeated (Cumulated) ([5]; 8 hrs): 257.5 micrograms and 239.8 micrograms | Amount Permeated (Cumulated) ([5]; 24 hrs): 581.6 micrograms and 572.6 micrograms | Amount Permeated (Cumulated) ([5]; 48 hrs): 740.0 micrograms and 728.3 micrograms

Molecule: Hyaluronic acid [HA]
accumulation in HA-depleted areas [6]: preferentially accumulates in these depleted areas

Molecule: Insulin
Amount Permeated in 20 Hrs. [7]: 10.85 Micrograms and 8.30 Micrograms | Amount Permeated in 20 Hrs. [2]: 41.96 Micrograms and 22.78 Micrograms | Amount Permeated in 20 Hrs. [3]: 0.04 Micrograms and 0.05 Micrograms

Molecule: human growth hormone: polypeptide drug, human growth hormone (22,000 daltons)
half-life [8]: less than 25 minutes

Molecule: parathyroid hormone: polypeptide drug, parathyroid hormone (9,500 daltons)
half-life [8]: less than 15 minutes
